Earlier results as cited in PMC5319408.

Target: cytochrome P450cam (CYP101, oxidized) (Pseudomonas putida) (UniProt P00183)
UniProt P00183, sequence (P00183 2-415): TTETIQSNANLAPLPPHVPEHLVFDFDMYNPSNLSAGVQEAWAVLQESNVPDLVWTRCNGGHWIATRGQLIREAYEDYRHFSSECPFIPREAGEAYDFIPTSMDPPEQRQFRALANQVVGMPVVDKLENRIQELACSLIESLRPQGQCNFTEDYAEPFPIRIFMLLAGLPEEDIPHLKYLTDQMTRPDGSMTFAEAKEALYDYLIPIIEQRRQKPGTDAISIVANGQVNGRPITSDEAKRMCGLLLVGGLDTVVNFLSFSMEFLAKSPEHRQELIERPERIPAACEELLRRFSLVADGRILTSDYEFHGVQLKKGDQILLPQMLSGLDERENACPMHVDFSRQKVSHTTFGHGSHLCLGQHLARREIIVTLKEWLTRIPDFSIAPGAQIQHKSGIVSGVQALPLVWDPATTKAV

In the case of “putidaredoxin (oxidized) (from UniProt P00259)”, the Kd is given as 17 µM.
